What was measured:
[1] = molecular target: 28mer peptide of the CXCR5 antigen; assay: Antigen-ELISA; histidine 10 mM prototype A, T0
[2] = molecular target: 28mer peptide of the CXCR5 antigen; assay: Potency (Antigen ELISA); stored +5°C, 3 months
[3] = molecular target: 28mer peptide of the CXCR5 antigen; assay: Antigen-ELISA; PBS 155 mM pH 6.50, T0
[4] = molecular target: 28mer peptide of the CXCR5 antigen; assay: ELISA potency (binding); 100 mg/mL, Glycine (20) + Mannitol (15), T zero
[5] = molecular target: 28mer peptide of the CXCR5 antigen; assay: Potency (Antigen ELISA); stored -20°C, 18 months
[6] = molecular target: 28mer peptide of the CXCR5 antigen; assay: Ag-ELISA; DS in PBS, release
[7] = molecular target: 28mer peptide of the CXCR5 antigen; assay: Antigen-ELISA; PB 5 mM pH 7.00, T0
[8] = molecular target: 28mer peptide of the CXCR5 antigen; assay: Antigen-ELISA; PB 10 mM pH 7.50, after 1 week at +40°C
[9] = molecular target: 28mer peptide of the CXCR5 antigen; assay: ELISA potency (binding); 100 mg/mL, Trehalose (60) + NaCl (2), 7 days at 40°C
[10] = molecular target: 28mer peptide of the CXCR5 antigen; assay: ELISA potency (binding); 100 mg/mL, Trehalose (60) + Mannitol (15), T zero
[11] = molecular target: 28mer peptide of the CXCR5 antigen; assay: Potency (Antigen ELISA); stored -20°C, 6 months
[12] = molecular target: 28mer peptide of the CXCR5 antigen; assay: Ag-ELISA; DS in PBS, 25°C, 1 month
[13] = molecular target: 28mer peptide of the CXCR5 antigen; assay: ELISA potency (binding); 100 mg/mL, Lysine (30) + NaCl (2), 7 days at 40°C
[14] = molecular target: 28mer peptide of the CXCR5 antigen; assay: Antigen-ELISA; Citrate 10 mM pH 5.00, after 1 week at +40°C
[15] = molecular target: 28mer peptide of the CXCR5 antigen; assay: Ag-ELISA; DS in PBS, 5°C, 1 month
[16] = molecular target: 28mer peptide of the CXCR5 antigen; assay: Antigen-ELISA; standard run with LA_09_27A, T0
[17] = molecular target: 28mer peptide of the CXCR5 antigen; assay: Antigen-ELISA; PB 5 mM pH 6.50, T0
[18] = molecular target: 28mer peptide of the CXCR5 antigen; assay: Antigen-ELISA; standard run with LA_09_29A, T0
[19] = molecular target: 28mer peptide of the CXCR5 antigen; assay: Potency (Antigen ELISA); stored -20°C, 1 month
[20] = molecular target: 28mer peptide of the CXCR5 antigen; assay: Antigen-ELISA; standard run with LA_09_27D, T0
[21] = molecular target: 28mer peptide of the CXCR5 antigen; assay: Antigen-ELISA; Histidine 10 mM pH 6, T0
[22] = molecular target: 28mer peptide of the CXCR5 antigen; assay: Antigen-ELISA; standard run with LA_09_28D, T0
[23] = molecular target: 28mer peptide of the CXCR5 antigen; assay: ELISA potency (binding); 100 mg/mL, Sucrose (60) + NaCl (2), 7 days at 40°C
[24] = molecular target: 28mer peptide of the CXCR5 antigen; assay: ELISA potency (binding); 100 mg/mL, Arginine (30), T zero
[25] = molecular target: 28mer peptide of the CXCR5 antigen; assay: Antigen-ELISA; PB 10 mM pH 6.50, after mechanical stress 350 rpm 2.5 h
[26] = molecular target: 28mer peptide of the CXCR5 antigen; assay: Antigen-ELISA; citrate 10 mM prototype D, T0
[27] = molecular target: 28mer peptide of the CXCR5 antigen; assay: ELISA potency (binding); 100 mg/mL, Trehalose (60) + Mannitol (15), 7 days at 40°C
[28] = molecular target: 28mer peptide of the CXCR5 antigen; assay: Antigen-ELISA; PB 10 mM pH 6.50, T0
[29] = molecular target: 28mer peptide of the CXCR5 antigen; assay: Antigen-ELISA; acetate 10 mM prototype B, repeated values in the 3 weeks -20°C
[30] = molecular target: 28mer peptide of the CXCR5 antigen; assay: Antigen-ELISA; standard run with LA_09_004_4
[31] = molecular target: 28mer peptide of the CXCR5 antigen; assay: Antigen-ELISA; Glycine 10 mM pH 7, T0
[32] = molecular target: 28mer peptide of the CXCR5 antigen; assay: Antigen-ELISA; PBS 155 mM, 1 h purged with N2, 24 h
[33] = molecular target: 28mer peptide of the CXCR5 antigen; assay: Antigen-ELISA; acetate 10 mM prototype D, T0
[34] = molecular target: 28mer peptide of the CXCR5 antigen; assay: Potency (Antigen ELISA); stored +5°C, 9 months
[35] = molecular target: 28mer peptide of the CXCR5 antigen; assay: Antigen-ELISA; PBS 155 mM, polyethylene high density, 24 h +40°C
[36] = molecular target: 28mer peptide of the CXCR5 antigen; assay: Antigen-ELISA; Saline 150 mM pH 6.00, after 1 week at +40°C
[37] = molecular target: 28mer peptide of the CXCR5 antigen; assay: Potency (Antigen ELISA); stored +5°C, 6 months
[38] = molecular target: 28mer peptide of the CXCR5 antigen; assay: Antigen-ELISA; Acetate 10 mM pH 5.00, T0
[39] = molecular target: 28mer peptide of the CXCR5 antigen; assay: Antigen-ELISA; acetate 10 mM prototype C, T0
[40] = molecular target: 28mer peptide of the CXCR5 antigen; assay: Antigen-ELISA; standard run with LA_09_29B, T0
[41] = molecular target: 28mer peptide of the CXCR5 antigen; assay: Antigen-ELISA; Histidine 10 mM pH 6.5, after 1 week at +40°C
[42] = molecular target: 28mer peptide of the CXCR5 antigen; assay: Ag-ELISA; DS in PBS, 5°C, 3 months
[43] = molecular target: 28mer peptide of the CXCR5 antigen; assay: Antigen-ELISA; Arginine 10 mM pH 8, after 1 week at +40°C
[44] = molecular target: 28mer peptide of the CXCR5 antigen; assay: Antigen-ELISA; Arginine 10 mM pH 6, T0

- EC50 % [1]: 174%
- EC50 value (in comparison to reference) [2]: 95%
- EC50 % [3]: 139%
- rel. potency [%] [4]: 111%
- EC50 value (in comparison to reference) [5]: 127%
- EC50 % [6]: 100%
- EC50 % [7]: 68%
- EC50 % [8]: 68%
- rel. potency [%] [9]: 191%
- rel. potency [%] [10]: 156%
- EC50 value (in comparison to reference) [11]: 96%
- EC50 % [12]: 106%
- rel. potency [%] [13]: 264%
- EC50 % [14]: 75%
- EC50 % [15]: 83%
- EC50 % [16]: 100%
- EC50 % [17]: 110%
- EC50 % [18]: 100%
- EC50 value (in comparison to reference) [19]: 107%
- EC50 % [20]: 100%
- EC50 % [21]: 184%
- EC50 % [22]: 100%
- rel. potency [%] [23]: 188%
- rel. potency [%] [24]: 160%
- EC50 % [25]: 89.4%
- EC50 % [26]: 94%
- rel. potency [%] [27]: 266%
- EC50 % [28]: 105%
- EC50 % [29]: 112%
- EC50 % [30]: 100%
- EC50 % [31]: 127%
- EC50 % [32]: 89.3%
- EC50 % [33]: 91%
- EC50 value (in comparison to reference) [34]: 92%
- EC50 % [35]: 157%
- EC50 % [36]: 80.9%
- EC50 value (in comparison to reference) [37]: 97%
- EC50 % [38]: 147%
- EC50 % [39]: 142%
- EC50 % [40]: 100%
- EC50 % [41]: 175%
- EC50 % [42]: 112%
- EC50 % [43]: 88%
- EC50 % [44]: 114%
B1: Lead CXCR5 Antibody (humanized IgG4 anti-CXCR5 antibody) (antibody, V domains shown)
VH: QVQLKESGPGLVAPSESLSITCTVSGFSLIDYGVNWIRQPPGKGLEWLGVIWGDGTTYYNPSLKSRLSISKDNSKSQVFLKVTSLTTDDTAMYYCARIVYWGQGTLVTVSA
VL: DIVMTQAAPSVAVTPGASVSISCRSSKSLLHSSGKTYLYWFLQRPGQSPQLLIYRLSSLASGVPDRFSGSGSGTAFTLRISRVEAEDVGVYYCMQHLEYPYTFGGGTKLEIKR
